In publication PMC1636348:

Target: DNA polymerase mu (Polμ) wild type (Homo sapiens, UniProt Q9NP87 1-494)
Assay: EMSA

Chain of DNA polymerase mu (Polμ) wild type (Q9NP87 whole entry): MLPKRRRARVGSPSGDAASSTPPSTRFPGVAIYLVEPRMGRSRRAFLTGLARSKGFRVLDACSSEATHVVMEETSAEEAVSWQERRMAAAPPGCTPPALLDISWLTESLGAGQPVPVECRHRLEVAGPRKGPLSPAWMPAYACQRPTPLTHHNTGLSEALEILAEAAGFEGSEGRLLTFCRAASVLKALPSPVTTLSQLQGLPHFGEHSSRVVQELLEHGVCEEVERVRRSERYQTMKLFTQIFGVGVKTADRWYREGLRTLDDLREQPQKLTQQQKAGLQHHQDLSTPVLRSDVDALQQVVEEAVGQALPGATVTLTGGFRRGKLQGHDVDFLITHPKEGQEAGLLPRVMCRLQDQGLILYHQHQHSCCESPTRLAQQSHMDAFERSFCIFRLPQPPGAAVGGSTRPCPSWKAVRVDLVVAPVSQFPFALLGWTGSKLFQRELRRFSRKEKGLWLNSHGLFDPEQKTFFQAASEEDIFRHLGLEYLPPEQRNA

B1: Blunt (P19+T19) (dsDNA)
DNA 1: GATCACAGTGAGTACAATA
DNA 2: TATTGTACTCACTGTGATC
B1: no binding.
